Patent US20240124590A1 (ULTRAHUMAN EIGHT, published 2024)
Where two headings read alike, the source gives them in different places.

T1: cynomolgus monkey PD1 human Fc tagged recombinant protein (cynomolgus monkey, UniProt Q15116 25-170 (human entry), limits assumed)
T1 construct: also called cyPD1-Fc; cyPD-1-Fc; not shown: human Fc tag
T1 chain: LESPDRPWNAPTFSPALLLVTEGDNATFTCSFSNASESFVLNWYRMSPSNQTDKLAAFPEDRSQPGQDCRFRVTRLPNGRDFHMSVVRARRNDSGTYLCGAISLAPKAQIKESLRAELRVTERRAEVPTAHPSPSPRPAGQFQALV

T2: cyno PD1 expressed on CHO-K1 cells (cynomolgus monkey, UniProt Q15116 25-288 (human entry))
T2 construct: also called cyno PD1+ CHO cells
T2 chain: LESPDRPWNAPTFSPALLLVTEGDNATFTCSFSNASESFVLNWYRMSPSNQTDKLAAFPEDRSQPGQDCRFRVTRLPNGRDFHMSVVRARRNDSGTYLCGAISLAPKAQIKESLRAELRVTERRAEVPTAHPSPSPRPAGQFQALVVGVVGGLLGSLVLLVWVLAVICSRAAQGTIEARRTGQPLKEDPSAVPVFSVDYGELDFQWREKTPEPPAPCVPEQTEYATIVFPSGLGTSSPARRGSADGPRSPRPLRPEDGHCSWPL

T3: human ULBP2 (UL16 binding protein 2) on transfected HEK293 cells (human, UniProt Q9BZM5 26-217)
T3 sequence: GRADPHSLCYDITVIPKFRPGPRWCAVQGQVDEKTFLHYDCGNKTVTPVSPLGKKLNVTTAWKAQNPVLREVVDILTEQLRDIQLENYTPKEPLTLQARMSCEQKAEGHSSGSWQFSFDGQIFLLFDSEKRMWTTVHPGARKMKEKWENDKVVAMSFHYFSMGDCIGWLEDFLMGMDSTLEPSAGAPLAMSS


Key:
[1] = molecular target: T4, human PD1 human Fc tagged recombinant protein (human, UniProt Q15116 25-170, limits assumed); test: direct ELISA, IgG1null on coated PD1-Fc
T4 construct: also called huPD1-Fc; huPD-1-Fc; not shown: human Fc tag
Procedure: (§1) Binding and cross-reactivity of the lead panel to the recombinant proteins was initially assessed by binding ELISA. The human PD1 human Fc tagged recombinant protein and the cynomolgus monkey PD1 human Fc tagged recombinant protein were coated to the surface of MaxiSorp™ flat-bottom 96 well plate at 1 μg/ml. […] The Fabs were detected using mouse anti-c-myc antibody followed by donkey anti-mouse IgG conjugated to horseradish peroxidase. The IgGs were detected using the mouse anti-human IgG conjugated to horseradish peroxidase. Binding signals were visualized with 3,3′,5,5′-Tetrannethylbenzidine Substrate Solution (TMB) and the absorbance measured at 450 nm.
(§2) The purified IgGs described above were then tested for binding to human and cyno PD1-Fc in direct titration ELISA format. […] As the ELISA EC50 values for directly binding IgGs are strongly influenced by avidity, rather than true 1:1 binding affinity, we then proceeded to perform higher-sensitivity, solution-phase epitope competition and Biacore binding affinity determinations, as outlined below.

[2] = molecular target: T1, cynomolgus monkey PD1 human Fc tagged …; test: direct ELISA, IgG1null on coated PD1-Fc
Procedure: as §1, §2

[3] = molecular target: T5, human PD1 expressed on cells (human, UniProt Q15116 25-288); test: flow cytometry, PD1 CHO-K1 cells
T5 construct: also called human PD1+ CHO cells; PD1-transfected HEK293 cells
Procedure: (§3) Purified IgGs were tested in FACs for binding to human and cyno PD1 expressed on CHO-K1 stable cell lines and CHO-K1 wild-type cells. […] Binding of IgGs was detected with a mouse anti-human IgG conjugated to FITC. Results were analyzed by examining the Mean Fluorescence Intensity (MFI) of 10000 cells per sample in the BL-1 channel detector of a flow cytometer (Attune™ NxT Acoustic Focusing Cytometer, Invitrogen/ThermoFisher Scientific).
(§4) Antibodies to PD1 were analysed for concentration-dependent binding at the cell surface via flow cytometry. Initial analyses were performed on CHO cells stably-transfected with human or cyno PD1.

[4] = molecular target: T2, cyno PD1 expressed on CHO-K1 cells; test: flow cytometry, PD1 CHO-K1 cells
Procedure: as §3, §4

[5] = molecular target: T6, human KDR (VEGFR2) on cells (human, UniProt P35968 20-1356); test: cell microarray re-array, transfected HEK293
T6 construct: Transfected HEK293 cells (arrays, flow cytometry) and human VEGFR2 reporter cells
Procedure: (§5) Antibody binding was detected using AF647 fluorescent secondary anti-human IgG1 antibody. Primary hits (duplicate spots) were identified by analysing fluorescence (AF647 and ZsGreen1) on ImageQuant. Vectors encoding all hits were sequenced to confirm their correct identities. […] Slides were analysed as above. Flow cytometry confirmation screen: Expression vectors encoding ZsGreen1 only, or ZsGreen1 and PD1, FZDS, KDR or ULBP2, were transfected into human HEK293 cells. Each live transfectant was incubated with […] of each of the test antibodies and the Isotype control antibody. Cells were washed, and incubated with the same AF647 anti-human IgG Fc detection antibody as used in the cell microarray screens. Cells were again washed, and analysed by flow cytometry using an Accuri flow cytometer (BD). A 7AAD live/dead dye was used to exclude dead cells, and ZsGreen1-positive cells (i.e. transfected cells) were selected for analyses.

[6] = molecular target: T7, human FZD5 (frizzled class receptor 5) on transfected HEK293 cells (human, UniProt Q13467 27-585); test: cell microarray re-array, transfected HEK293
T7 construct: also called FZDS; FZ5
Procedure: as §5

[7] = molecular target: T3, human ULBP2 (UL16 binding protein 2) on …; test: cell microarray re-array, transfected HEK293
Procedure: as §5

[8] = molecular target: T4, human PD1 human Fc tagged recombinant …; test: direct ELISA, IgG1null on coated PD1-Fc; remark: listed apart in the source
Procedure: as §1, §2

[9] = molecular target: T1, cynomolgus monkey PD1 human Fc tagged …; test: direct ELISA, IgG1null on coated PD1-Fc
Procedure: as §1, §2

T5 sequence (Q15116 25-288 limits assumed): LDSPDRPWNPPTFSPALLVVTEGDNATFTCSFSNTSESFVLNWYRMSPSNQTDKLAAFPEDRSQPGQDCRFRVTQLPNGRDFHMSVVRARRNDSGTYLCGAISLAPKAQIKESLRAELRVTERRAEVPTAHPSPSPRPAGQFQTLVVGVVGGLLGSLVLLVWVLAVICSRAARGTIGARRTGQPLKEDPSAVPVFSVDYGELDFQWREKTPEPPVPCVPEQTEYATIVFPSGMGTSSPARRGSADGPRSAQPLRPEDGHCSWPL
T6 sequence (P35968 20-1356 limits assumed): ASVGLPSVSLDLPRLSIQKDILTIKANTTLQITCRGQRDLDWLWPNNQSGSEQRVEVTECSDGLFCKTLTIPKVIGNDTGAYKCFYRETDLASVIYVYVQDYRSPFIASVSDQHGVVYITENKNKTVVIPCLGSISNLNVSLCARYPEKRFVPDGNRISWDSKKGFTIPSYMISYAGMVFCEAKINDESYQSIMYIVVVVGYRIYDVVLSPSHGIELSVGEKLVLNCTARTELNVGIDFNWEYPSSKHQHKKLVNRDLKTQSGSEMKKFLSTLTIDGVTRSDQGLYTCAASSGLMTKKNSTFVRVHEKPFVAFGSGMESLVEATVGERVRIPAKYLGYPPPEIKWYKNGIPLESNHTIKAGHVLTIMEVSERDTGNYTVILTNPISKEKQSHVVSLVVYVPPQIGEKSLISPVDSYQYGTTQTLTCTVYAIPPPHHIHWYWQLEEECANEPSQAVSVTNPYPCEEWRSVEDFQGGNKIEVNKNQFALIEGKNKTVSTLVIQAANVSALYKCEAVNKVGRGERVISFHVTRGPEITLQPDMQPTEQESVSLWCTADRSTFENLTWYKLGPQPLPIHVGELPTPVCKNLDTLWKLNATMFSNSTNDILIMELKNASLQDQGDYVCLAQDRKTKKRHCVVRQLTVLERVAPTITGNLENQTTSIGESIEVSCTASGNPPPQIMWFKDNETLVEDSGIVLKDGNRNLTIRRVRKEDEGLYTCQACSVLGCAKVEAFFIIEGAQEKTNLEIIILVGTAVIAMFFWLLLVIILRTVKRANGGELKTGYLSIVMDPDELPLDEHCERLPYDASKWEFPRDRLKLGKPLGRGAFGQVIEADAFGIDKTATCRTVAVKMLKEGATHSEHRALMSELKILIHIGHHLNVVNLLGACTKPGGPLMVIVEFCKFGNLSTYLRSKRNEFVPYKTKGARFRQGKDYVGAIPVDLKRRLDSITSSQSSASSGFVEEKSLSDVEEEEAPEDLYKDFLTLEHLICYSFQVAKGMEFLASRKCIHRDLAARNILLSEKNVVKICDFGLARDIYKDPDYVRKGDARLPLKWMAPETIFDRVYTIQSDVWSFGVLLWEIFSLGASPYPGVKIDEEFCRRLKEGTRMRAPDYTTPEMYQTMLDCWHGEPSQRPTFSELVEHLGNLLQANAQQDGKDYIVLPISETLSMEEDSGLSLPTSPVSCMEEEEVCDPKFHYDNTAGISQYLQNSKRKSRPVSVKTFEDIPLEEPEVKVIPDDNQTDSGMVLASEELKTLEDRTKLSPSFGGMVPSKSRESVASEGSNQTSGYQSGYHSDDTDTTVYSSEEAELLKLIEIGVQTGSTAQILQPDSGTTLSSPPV
T4 sequence (Q15116 25-170 limits assumed): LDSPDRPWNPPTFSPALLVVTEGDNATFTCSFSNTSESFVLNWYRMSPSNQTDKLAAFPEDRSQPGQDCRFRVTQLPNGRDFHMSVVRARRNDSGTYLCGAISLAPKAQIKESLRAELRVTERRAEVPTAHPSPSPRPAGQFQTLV

EC50 [1] [nM]	EC50 [2] [nM]	EC50 [3] [nM]	EC50 [4] [nM]	binding result [5]	binding result [6]	binding result [7]	EC50 [8] [nM]	EC50 [9] [nM]	Binder
0.134	0.0771	1.55	2.03	no binding (tested: 5 µg/ml)	no binding (tested: 5 µg/ml)	no binding (tested: 5 µg/ml)			IgG1-08 (antibody, V domains shown, Designer; human IgG1null + Ckappa; also called Antibody IgG1-08; MAB08) VH: EVQLVESGGGLVQPGGSLRLSCAASGFTFSSYLMSWVRQAPGKGLEWVATISGGGSEKYYVDSVKGRFTISRDNAKNSLYLQMNSLRAEDTAVYYCARQLYGFDYWGQGTLVTVSS VL: not shown
0.121	0.135	1.66	2.52	no binding (tested: 5 µg/ml)	no binding (tested: 5 µg/ml)	no binding (tested: 5 µg/ml)			IgG1-05 (antibody, V domains shown, Designer; human IgG1null + Ckappa; also called Antibody IgG1-05) VH: EVQLVESGGGLVQPGGSLRLSCAASGFTFSSYLMSWVRQAPGKGLEWVATISGGGSEKYYVDSVKGRFTISRDNAKNSLYLQMNSLRAEDTAVYYCARQVYYFDYWGQGTLVTVSS VL: not shown
		1.78	1.56	no binding (tested: 5 µg/ml)	no binding (tested: 5 µg/ml)	no binding (tested: 5 µg/ml)	0.065	0.104	IgG1-06D02 (antibody, V domains shown, Library-derived; human IgG1null + Ckappa; also called Clone 06D02) VH: EVQLVESGGGLVQPGGSLRLSCAASGFTFSSYLMSWVRQAPGKGLEWVATISGGGSETYYVDSVKGRFTISRDNAKNSLYLQMNSLRAEDTAVYYCARQLYGFDYWGQGTLVTVSS VL: not shown
